Data from patent US20160015831A1.

Tests used:
human CD22 (human) [1] = biological target: human CD22 (human) (UniProt P20273); assay: flow cytometry, RL cells, 10 µg/mL
human CD22 (human) [2] = biological target: human CD22 (human) (UniProt P20273); assay: flow cytometry, REH cells, 10 µg/ml
human CD22 (human) [3] = biological target: human CD22 (human) (UniProt P20273); assay: flow cytometry, Raji cells, 10 µg/mL
human CD22 (human) [4] = biological target: human CD22 (human) (UniProt P20273); assay: flow cytometry, Daudi cells, 10 µg/mL
human CD22 (human) [5] = biological target: human CD22 (human) (UniProt P20273); assay: flow cytometry, Ramos cells, 10 µg/mL
human CD22 (human) [6] = biological target: human CD22 (human) (UniProt P20273); assay: flow cytometry, Daudi cells, 10 µg/ml

MFI (human CD22 (human) [1]): 12.8
MFI (human CD22 (human) [2]): 4.5
MFI (human CD22 (human) [3]): 6.2
MFI (human CD22 (human) [4]): 8.3
MFI (human CD22 (human) [5]): 5.4
MFI (human CD22 (human) [6]): 26.1
Substance: isotype control antibody human IgG
